From patent publication US20210348149A1 (Alexion, published 2021)

Molecular target: T1, r-Antidote (two-chain polypeptide, SEQ ID NO: 3); processed product of the precursor SEQ ID NO: 2 after … (human, UniProt P00742 80-179); P00742 235-488, in certain production batches: glycosylation at Thr249; in certain production batches: glycosylation at Ser56, Ser72, Ser76 and Thr82; (3R)-3-hydroxyAsp at Asp29)
T1 construct: Light and heavy chain are joined by a disulfide bond, Cys98 of the light chain to Cys108 of the heavy chain; also called fXa antidote; fXa derivative
T1 sequence (P00742 other isoform, or with tags, fused parts or gaps limits assumed, chain 1 of 2): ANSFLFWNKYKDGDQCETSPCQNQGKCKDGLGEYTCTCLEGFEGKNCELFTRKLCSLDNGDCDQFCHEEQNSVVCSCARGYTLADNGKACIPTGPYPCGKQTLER
T1 sequence (P00742 235-488 S419A limits assumed, chain 2 of 2): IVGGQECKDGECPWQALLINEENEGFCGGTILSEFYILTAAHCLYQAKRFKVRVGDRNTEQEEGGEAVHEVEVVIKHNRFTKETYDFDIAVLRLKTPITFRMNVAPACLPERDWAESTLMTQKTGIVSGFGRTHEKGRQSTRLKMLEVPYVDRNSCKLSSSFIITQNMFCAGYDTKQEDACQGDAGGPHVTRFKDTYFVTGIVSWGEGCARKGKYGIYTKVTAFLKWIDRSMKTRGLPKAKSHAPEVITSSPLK
Experiment: affinity chromatography with immobilised STI ligand (Example 2)
Experimental: An affinity chromatograph was developed for high-volume extraction of the antidote. The affinity ligand included Kunitz trypsin inhibitor (21 kDa; pI=4.5) extracted from whole soybean or flour. The soybean trypsin inhibitor (STI) forms 1:1 complex with the antidote. A non-competitive inhibitor elution condition was identified for scalability and compatibility, which included 25 mM Na-acetate, 1M Arginine, at pH 5.2.
Affinity column chromatography was performed using Capto STI resin at ambient temperature. During the load phase, the product bound to the resin while contaminants flew through. The product was recovered by disrupting protein interactions with a high concentration of arginine in the elution buffer. Prior to use, the column was rinsed with water for injection (WFI), cleaned with 100 mM Phosphoric Acid pH 3.0, and rinsed with WFI. The column was initially pre-equilibrated with pre-equilibration buffer (20 mM Tris-HCl, pH 7.4), then equilibrated with equilibration buffer (20 mM Tris-HCl, 200 mM NaCl, pH 7.4), and once the pH and conductivity of the column were within specification, it was loaded with Triton-X 100 treated clarified harvest (HCCF). Each cycle of HCCF material was transferred from its viral inactivation hold tank directly to the column.

binding result: binds
B1: soybean trypsin inhibitor (STI), Kunitz trypsin inhibitor (21 kDa; pI=4.5) extracted from whole soybean or flour (other, soybean (Glycine max), UniProt P01070 25-205, looked up)
chain: DFVLDNEGNPLENGGTYYILSDITAFGGIRAAPTGNERCPLTVVQSRNELDKGIGTIISSPYRIRFIAEGHPLSLKFDSFAVIMLCVGIPTEWSVVEDLPEGPAVKIGENKDAMDGWFRLERVSDDEFNNYKLVFCPQQAEDDKCGDIGISIDHDDGTRRLVVSKNKPLVVQFQKLDKESL
notes: also called STI ligand
